{"source": "paper PMC8508685", "about": "“The Ephb2 Receptor Uses Homotypic, Head-to-Tail Interactions within Its Ectodomain as an Autoinhibitory Control Mechanism” (International Journal of Molecular Sciences, 2021)", "key": {"[1]": {"biological_target": "human EphB2 full-length Y481E (human) (UniProt P29323)"}, "[2]": {"biological_target": "human EphB2 full-length Q472A/Y473A/E480A/Y481A (human) (UniProt P29323)"}, "[3]": {"biological_target": "human EphB2 full-length N482Q (human) (UniProt P29323)"}, "[4]": {"biological_target": "the molecule itself", "assay": "crystal structure; unliganded EphB2-ECD at 10 mg/mL in HBS, hanging drop at room temperature, 1.1 M Na Succinate, 0.1 M Na Acetate pH 4.8, 5% MPD, 3% 1,6-Hexanediol; 3.1 Å; head-to-tail contact between neighbouring molecules in the crystal"}}}
{"molecule": "human EphB2 full-length Y481E (from UniProt P29323 19-1055) (receptor)", "values": [{"measurement": "EphB2 kinase domain phosphorylation in HEK293 cells (anti-phosphotyrosine IP, anti-EphB2 blot), compared with the wild-type receptor (% lower than wild type)", "setting": "[1]", "value": 56}]}
{"molecule": "human EphB2 full-length Q472A/Y473A/E480A/Y481A (from UniProt P29323 19-1055) (receptor)", "values": [{"measurement": "EphB2 phosphorylation in HEK293 cells after ephrin stimulation (anti-phosphotyrosine IP, anti-EphB2 blot), band intensity compared with the wild-type receptor (% higher than wild type)", "setting": "[2]", "value": 46}]}
{"molecule": "human EphB2 full-length N482Q (from UniProt P29323 19-1055) (receptor)", "values": [{"measurement": "EphB2 phosphorylation in HEK293 cells after ephrin stimulation (anti-phosphotyrosine IP, anti-EphB2 blot), band intensity compared with the wild-type receptor (% higher than wild type)", "setting": "[3]", "value": 40}]}
{"molecule": "mouse EphB2 extracellular domain (ECD) (residues 19-543) (domain or fragment, UniProt P54763 19-543, looked up, glycosylated at N265, N336, N428 and N482, EphB2 (ephrin type-B receptor 2), mouse, extracellular domain (LBD, CRD, FN1, FN2), residues 19-543; also called EphB2-ECD; EphB2 ECD; not shown: Fc (human), C-terminal, cleaved) VEETLMDSTTATAELGWMVHPPSGWEEVSGYDENMNTIRTYQVCNVFESSQNNWLRTKFIRRRGAHRIHVEMKFSVRDCSSIPSVPGSCKETFNLYYYEADFDLATKTFPNWMENPWVKVDTIAADESFSQVDLGGRVMKINTEVRSFGPVSRNGFYLAFQDYGGCMSLIAVRVFYRKCPRIIQNGAIFQETLSGAESTSLVAARGSCIANAEEVDVPIKLYCNGDGEWLVPIGRCMCKAGFEAVENGTVCRGCPSGTFKANQGDEACTHCPINSRTTSEGATNCVCRNGYYRADLDPLDMPCTTIPSAPQAVISSVNETSLMLEWTPPRDSGGREDLVYNIICKSCGSGRGACTRCGDNVQYAPRQLGLTEPRIYISDLLAHTQYTFEIQAVNGVTDQSPFSPQFASVNITTNQAAPSAVSIMHQVSRTVDSITLSWSQPDQPNGVILDYELQYYEKELSEYNATAIKSPTNTVTVQGLKAGAIYVFQVRARTVAGYGRYSGKMYFQTMTEAEYQTSIKEKLPL", "values": [{"measurement": "binding result", "setting": "[4]", "value": "binds"}]}
